# Earlier results in publication PMC4115291 (Nature communications, 2014).
# Test system: mice
substance,measurement,setting,value
β-Diguetoxin-Dc1a,"effect in mice, injected intracerebroventricularly (in words)",1.0 mg/kg intracerebroventricularly,no effect
same,"effect in mice, injected intraperitoneally (in words)",4.1 mg/kg intraperitoneally,no effect
